Results taken from patent US20100172938A1 (NEDERLANDSE ORGANISATIE VOOR TOEGEPAST …, published 2010).

Key:
[1] = target: the molecule itself; test: SDS-PAGE and western blot, self-association (dimer)
Excerpt: To get further insight in the structure of SAN, vectors were constructed encoding C-terminally (SAN2, 4 and 6 carrying the first 159, 149 and 113 amino acids) or N-terminally truncated peptides (SAN7, 3 and 5 comprising the last 177, 151 and 141 amino acids). The truncated His-tagged genes were expressed in E. coli and the peptides SAN2, SAN4, SAN6 and SAN7 were purified by affinity chromatography. The peptides SAN3 and SAN5 were produced at very low levels and could not be purified probably due to increased sensitivity to E. coli proteases.
Three DNA fragments encoding C-terminally truncated SAN peptides were amplified by PCR with pBK1 (Boot et al., 1993) as template. Primer CEA1 (5′-[…]-3′, forward: SEQ ID NO. 26) was used in combination with primer SANA1 (5′-[…]-[…]-3′, reverse: SEQ ID NO. 27) to amplify SAN2, SANA2 (5′-[…]-3′, reverse: SEQ ID NO. 28) for SAN4 and SANA3 (5′-[…]-3′, reverse: SEQ ID NO. 29) for SAN6. Fragments encoding three N-terminally truncated peptides were amplified using primer SANB1 (5′-[…]-[…]-3′: SEQ ID NO. 30) for SAN3, SANB2 (5′-[…]-TT-[…]-3′: SEQ ID NO. 31) for SAN5 and SANB3 (5′-GGGGGG-[…]-3′: SEQ ID NO. 32) for SAN7, all three in combination with primer SAN1 (5′[…]-[…]-3′, reverse: SEQ ID NO. 33) and the same template. The fragments were cloned in pGEM-T and sequenced. The fragments encoding SAN2, SAN3, SAN4, SAN5, SAN6 and SAN7 were excised as BamHI-HindIII fragments and introduced in vector pQE30ΔXN (Smit et al., 2001) in frame with an N-terminal six histidine tag. Expression of gene fragments and purification of the gene products was performed as described previously (Smit et al., 2001).

[2] = target: the molecule itself; test: SDS-PAGE and western blot, self-association

Protein | binding result [1] | binding result [2]
SAN2, C-terminally truncated SAN peptide carrying the first 159 amino acids, His-tagged (other) RGSHHHHHHGSGTATTINASSSAINTNTNAKYDVDVTPSVSAVAANTANNTPAIAGNLTGTISASYNGKTYTANLKADTENATITAAGSTTAVKPAELAAGVAYTVTVNDVSFNFGSENAGKTVTLGSANSNVKFTGTNSDNQTETNVSTLKVKLDQNGVASLTNVSIANVY | binds | 
SAN, crystallisation domain of SA-protein (amino acids 1-290), His-tagged (other, Construct from Smit et al. 2001; not shown: His-tag (detected with anti-his antibody)) ATTINASSSAINTNTNAKYDVDVTPSVSAVAANTANNTPAIAGNLTGTISASYNGKTYTANLKADTENATITAAGSTTAVKPAELAAGVAYTVTVNDVSFNFGSENAGKTVTLGSANSNVKFTGTNSDNQTETNVSTLKVKLDQNGVASLTNVSIANVYAINTTDNSNVNFYDVTSGATVTNGAVSVNADNQGQVNVANVVAAINSKYFAAQYADKKLNTRTANTEDAIKAALKDQKIDVNSVGYFKAPHTFTVNVKATSNTNGKSATLPVVVTVPNVAEPTVASVSKRI |  | binds
SAN7, N-terminally truncated SAN peptide, His-tagged (other) RGSHHHHHHGSGTSANSNVKFTGTNSDNQTETNVSTLKVKLDQNGVASLTNVSIANVYAINTTDNSNVNFYDVTSGATVTNGAVSVNADNQGQVNVANVVAAINSKYFAAQYADKKLNTRTANTEDAIKAALKDQKIDVNSVGYFKAPHTFTVNVKATSNTNGKSATLPVVVTVPNVAEPTVASVSKRI | binds | 
SAN6, C-terminally truncated SAN peptide, His-tagged (other) RGSHHHHHHGSGTATTINASSSAINTNTNAKYDVDVTPSVSAVAANTANNTPAIAGNLTGTISASYNGKTYTANLKADTENATITAAGSTTAVKPAELAAGVAYTVTVNDVSFNFGSENAGKTVTLG | binds | 
SAN4, C-terminally truncated SAN peptide carrying the first 149 amino acids, His-tagged (other) RGSHHHHHHGSGTATTINASSSAINTNTNAKYDVDVTPSVSAVAANTANNTPAIAGNLTGTISASYNGKTYTANLKADTENATITAAGSTTAVKPAELAAGVAYTVTVNDVSFNFGSENAGKTVTLGSANSNVKFTGTNSDNQTETNVSTLKVKLDQNGVAS | binds | 
